In patent publication US20240293570A1 (priority 2021, published 2024):
Where two headings read alike, the source gives them in different places.

Key:
[1] = Stability (placement) test of ADCs at 40° C. in dark for 14 days, DAR and polymer content; format: physicochemical
Procedure: (§1) Polymers (high molecular components) of the antibody-drug conjugates were tested using molecular exclusion high-performance liquid chromatography (SE-HPLC). A Biocore SEC chromatographic column (7.8×300 mm, […]) was used, and the mobile phase was 50 mM phosphate containing 300 mM sodium chloride (pH 6.8), with a flow rate of 0.5 mL/min. Samples of […] and 10 μl were injected. […] The polymer content of an antibody-drug conjugate was calculated using an area normalization method.
(§2) A drug-antibody conjugating ratio (also known as drug-antibody ratio, abbreviated as DAR) of the antibody-drug conjugate was tested using reversed-phase high-performance liquid chromatography-mass chromatography (RP-HPLC-MS). The ADC sample was diluted with 50 mmol/L Tris buffer (pH 8.0) to 1 mg/ml. A fresh dithiothreitol (DTT) stock solution was added to achieve a final DTT concentration of 50 mmol/L. Incubation was performed at 37° C. for 30 minutes. A PLRP-S chromatographic column (1000 Å pores, 2.1×50 mm, 5) μm) was used, and the column temperature was 70° C. The flow rate was 0.25 mL/min. […] of sample was injected; the mobile phase A was an aqueous solution of 0.1% formic acid (V/V) and 0.025% trifluoroacetic acid (V/V), and the mobile phase B was an acetonitrile solution of 0.1% formic acid (V/V) and 0.025% trifluoroacetic acid (V/V); the running time was 0-3 minutes, where 27% of mobile phase B ran for 3 minutes, and the mobile phase B ran from 27% to 49% within 3-25 minutes, from 49% to 95% within 25-26 minutes, at 95% within […], from 95% to 27% within 30-31.5 minutes, and at 27% for 31.5-45 minutes. […] Mass spectrometry drying gas was at a temperature of 350° C. and a flow rate of 7.0 L/min, the pressure of an atomizer was 40 psi, capillary voltage was positive 3000V and negative 3000V, and the mass range was 500-1600 m/z. The molecular weight of each mass spectrometry peak (ranging from 20000 to 70000) was calculated by deconvolution and compared with light and heavy chain molecular weights of un-conjugated antibodies to calculate a drug load at each peak, so as to determine the load of a corresponding ultraviolet peak. Area percentages of heavy and light chain ultraviolet peaks were calculated through integration, and a weighted average DAR of the antibody-drug conjugate was calculated by combining the area percentages with the drug load distribution of each peak.
Stability testing method: The stability of the obtained ADCs was tested for 14 days. The ADCs were placed at 40° C. in dark. Sampling points were days 0, 7, and 14. The polymer content and DAR value of samples at different sampling points were tested according to the method in Experimental Example 1.

[2] = format: physicochemical; conditions: ADC with Her2 antibody, RP-HPLC-MS
Procedure: as §2

[3] = Naked antibody content of antibody-drug conjugates by hydrophobic interaction chromatography (HIC); format: physicochemical; conditions: ADC with Her2 antibody
Procedure: The content of naked antibodies in the antibody-drug conjugate was tested using hydrophobic interaction chromatography (HIC). A Biocore HIC-Butyl chromatographic column (4.6×150 mm, 5 μm) was used. The mobile phase A was a 100 mM phosphate aqueous solution containing 2 M ammonium sulfate (pH 7.0), and the mobile phase B was a 100 mM phosphate aqueous solution (pH 7.0): isopropanol=80:20 (V/V). Samples of 50 μg and 10 μl were injected. The mobile phase A at the flow rate of 1 mL/min ran at 100% for 3 minutes. Within 3-25 minutes, the mobile phase B ran from […] to 100%, while the mobile phase B decreased to 0% at 25.1 and ran to 30 minutes. […] The naked antibody content of the antibody-drug conjugate was calculated using an area normalization method based on the retention time of a naked antibody peak located by the antibody of the antibody-drug conjugate.

[4] = Polymer (high molecular component) content of antibody-drug conjugates by SE-HPLC; format: physicochemical; conditions: ADC with Her2 antibody
Procedure: as §1

SMILES: CC[C@@]1(O)C(=O)OCc2c1cc1n(c2=O)Cc2c-1nc1cc(F)c(C)c3c1c2[C@@H](NC(=O)COCNC(=O)CNC(=O)CNC(=O)CNC(=O)CN1CCOCCN(C(=O)CCN2C(=O)C=CC2=O)CCOCC1)CC3 [Example 28]
- DAR ([1]; Day 0, 40° C. in dark): 3.84
- Polymer content (%) ([1]; Day 0, 40° C. in dark): 0.56%
- DAR ([1]; Day 7, 40° C. in dark): 3.89
- Polymer content (%) ([1]; Day 7, 40° C. in dark): 0.57%
- DAR ([1]; Day 14, 40° C. in dark): 3.82
- Polymer content (%) ([1]; Day 14, 40° C. in dark): 0.65%
- DAR [2]: 3.84
- Naked antibody content (%) [3]: 2.76%
- Polymer content (%) [4]: 0.56%

SMILES: C=C1C[C@@H]2CC[C@@]34C[C@H]5OC6C(O[C@H]7CC[C@H](CC(=O)C[C@@H]8[C@@H](OC)[C@@H](C[C@H](O)CNC(=O)CNC(=O)[C@H](Cc9ccccc9)NC(=O)CNC(=O)CNC(=O)CCOCCOCCN(CCOCCOCCC(=O)NCC(=O)NCC(=O)N[C@@H](Cc9ccccc9)C(=O)NCC(=O)NCOCC(=O)N[C@H]9CCc%10c(C)c(F)cc%11nc%12c(c9c%10%11)Cn9c-%12cc%10c(c9=O)COC(=O)[C@]%10(O)CC)C(=O)CN9CCOCCOCCOCCOCCN(C(=O)CCOCCOCCOCCOCCOCCOCCOCCOCCN%10C(=O)C=CC%10=O)CCOCCOCCOCCOCC9)O[C@H]8C[C@H]8O[C@@H](CC[C@@H]1O2)C[C@@H](C)C8=C)O[C@@H]7[C@@H]6O3)[C@H]5O4 [Example 15]
- DAR ([1]; Day 0, 40° C. in dark): 4.07
- Polymer content (%) ([1]; Day 0, 40° C. in dark): 1.20%
- DAR ([1]; Day 7, 40° C. in dark): 4.07
- Polymer content (%) ([1]; Day 7, 40° C. in dark): 1.21%
- DAR ([1]; Day 14, 40° C. in dark): 4.11
- Polymer content (%) ([1]; Day 14, 40° C. in dark): 1.27%
- DAR [2]: 4.07
- Naked antibody content (%) [3]: 3.63%
- Polymer content (%) [4]: 1.20%

SMILES: C=C1C[C@@H]2CC[C@@]34C[C@H]5OC6C(C[C@H]7CC[C@H](CC(=O)C[C@@H]8[C@@H](OC)[C@@H](CC(O)CNC(=O)CNC(=O)[C@H](Cc9ccccc9)NC(=O)CNC(=O)CNC(=O)CN9CCN%10CCN(CCN(CC(=O)NCC(=O)NCC(=O)N[C@@H](Cc%11ccccc%11)C(=O)NCC(=O)NCOCC(=O)N[C@H]%11CCc%12c(C)c(F)cc%13nc%14c(c%11c%12%13)Cn%11c-%14cc%12c(c%11=O)COC(=O)[C@]%12(O)CC)CC9)CCN(C(=O)CCCCCN9C(=O)C=CC9=O)CC%10)O[C@H]8C[C@H]8O[C@@H](CC[C@@H]1O2)C[C@@H](C)C8=C)O[C@@H]7[C@@H]6O3)[C@H]5O4 (stereo partly drawn) [Example 59]
- DAR ([1]; Day 0, 40° C. in dark): 3.83
- Polymer content (%) ([1]; Day 0, 40° C. in dark): 1.18%
- DAR ([1]; Day 7, 40° C. in dark): 3.83
- Polymer content (%) ([1]; Day 7, 40° C. in dark): 1.22%
- DAR ([1]; Day 14, 40° C. in dark): 3.78
- Polymer content (%) ([1]; Day 14, 40° C. in dark): 1.27%
- DAR [2]: 3.83
- Naked antibody content (%) [3]: 2.57%
- Polymer content (%) [4]: 1.18%

SMILES: C=C1C[C@@H]2CC[C@@]34C[C@H]5OC6C(C[C@H]7CC[C@H](CC(=O)C[C@@H]8[C@@H](OC)[C@@H](C[C@H](O)CNC(=O)CNC(=O)[C@H](Cc9ccccc9)NC(=O)CNC(=O)CNC(=O)CCC(=O)N9CCOCCN(C(=O)CCN%10C(=O)C=CC%10=O)CCOCC9)O[C@H]8C[C@H]8O[C@@H](CC[C@@H]1O2)C[C@@H](C)C8=C)O[C@@H]7[C@@H]6O3)[C@H]5O4 [Example 26]
- DAR ([1]; Day 0, 40° C. in dark): 3.92
- Polymer content (%) ([1]; Day 0, 40° C. in dark): 0.70%
- DAR ([1]; Day 7, 40° C. in dark): 3.92
- Polymer content (%) ([1]; Day 7, 40° C. in dark): 0.72%
- DAR ([1]; Day 14, 40° C. in dark): 3.96
- Polymer content (%) ([1]; Day 14, 40° C. in dark): 0.66%
- DAR [2]: 3.92
- Naked antibody content (%) [3]: 1.26%
- Polymer content (%) [4]: 0.70%

SMILES: C=C1C[C@@H]2CC[C@@]34C[C@H]5OC6C(O[C@H]7CC[C@H](CC(=O)C[C@@H]8[C@@H](OC)[C@@H](C[C@H](O)CNC(=O)CNC(=O)[C@H](Cc9ccccc9)NC(=O)CNC(=O)CNC(=O)CCOCCOCCN(CCOCCOCCC(=O)NCC(=O)NCC(=O)N[C@@H](Cc9ccccc9)C(=O)NCC(=O)NCOCC(=O)N[C@H]9CCc%10c(C)c(F)cc%11nc%12c(c9c%10%11)Cn9c-%12cc%10c(c9=O)COC(=O)[C@]%10(O)CC)C(=O)CN9CCOCCOCCOCCOCCN(C(=O)CCCCCC%10C(=O)C=CC%10=O)CCOCCOCCOCCOCC9)O[C@H]8C[C@H]8O[C@@H](CC[C@@H]1O2)C[C@@H](C)C8=C)O[C@@H]7[C@@H]6O3)[C@H]5O4 [Example 14]
- DAR ([1]; Day 0, 40° C. in dark): 3.82
- Polymer content (%) ([1]; Day 0, 40° C. in dark): 0.59%
- DAR ([1]; Day 7, 40° C. in dark): 3.83
- Polymer content (%) ([1]; Day 7, 40° C. in dark): 0.63%
- DAR ([1]; Day 14, 40° C. in dark): 3.84
- Polymer content (%) ([1]; Day 14, 40° C. in dark): 0.72%
- DAR [2]: 3.82
- Naked antibody content (%) [3]: 4.97%
- Polymer content (%) [4]: 0.59%

SMILES: CCc1c2c(nc3ccc(O)cc13)-c1cc3c(c(=O)n1C2)COC(=O)[C@@]3(CC)OC(=O)N(C)CCN(C)C(=O)COCNC(=O)[C@H](CC(N)=O)NC(=O)[C@H](C)NC(=O)[C@H](C)NC(=O)CN1CCOCCN(C(=O)CCN2C(=O)C=CC2=O)CCOCC1 [Example 83]
- DAR ([1]; Day 0, 40° C. in dark): 3.96
- Polymer content (%) ([1]; Day 0, 40° C. in dark): 0.56%
- DAR ([1]; Day 7, 40° C. in dark): 3.98
- Polymer content (%) ([1]; Day 7, 40° C. in dark): 0.59%
- DAR ([1]; Day 14, 40° C. in dark): 3.96
- Polymer content (%) ([1]; Day 14, 40° C. in dark): 0.58%
- DAR [2]: 3.96
- Naked antibody content (%) [3]: 2.23%
- Polymer content (%) [4]: 0.56%

SMILES: C=C1C[C@@H]2CC[C@@]34C[C@H]5OC6C(O[C@H]7CC[C@H](CC(=O)C[C@@H]8[C@@H](OC)[C@@H](C[C@H](O)CNC(=O)CNC(=O)[C@H](Cc9ccccc9)NC(=O)CNC(=O)CNC(=O)CN9CCOCCOCCN(C(=O)CCCCCN%10C(=O)C=CC%10=O)CCOCCOCC9)O[C@H]8C[C@H]8O[C@@H](CC[C@@H]1O2)C[C@@H](C)C8=C)O[C@@H]7[C@@H]6O3)[C@H]5O4 [Example 39]
- DAR ([1]; Day 0, 40° C. in dark): 4.30
- Polymer content (%) ([1]; Day 0, 40° C. in dark): 0.90%
- DAR ([1]; Day 7, 40° C. in dark): 4.32
- Polymer content (%) ([1]; Day 7, 40° C. in dark): 0.92%
- DAR ([1]; Day 14, 40° C. in dark): 4.30
- Polymer content (%) ([1]; Day 14, 40° C. in dark): 0.98%
- DAR [2]: 4.30
- Naked antibody content (%) [3]: 0.00%
- Polymer content (%) [4]: 0.90%

SMILES: CCc1c2c(nc3ccc(O)cc13)-c1cc3c(c(=O)n1C2)CCC(=O)[C@@]3(CC)OC(=O)N(C)CCN(C)C(=O)COCNC(=O)CNC(=O)[C@H](Cc1ccccc1)NC(=O)CNC(=O)CNC(=O)CN1CCOCCN(C(=O)CCN2C(=O)C=CC2=O)CCOCC1 [Example 23]
- DAR ([1]; Day 0, 40° C. in dark): 4.12
- Polymer content (%) ([1]; Day 0, 40° C. in dark): 0.41%
- DAR ([1]; Day 7, 40° C. in dark): 4.15
- Polymer content (%) ([1]; Day 7, 40° C. in dark): 0.45%
- DAR ([1]; Day 14, 40° C. in dark): 4.16
- Polymer content (%) ([1]; Day 14, 40° C. in dark): 0.56%
- DAR [2]: 4.12
- Naked antibody content (%) [3]: 0.00%
- Polymer content (%) [4]: 0.41%
